Laboratory results reported in US20040071656A1 (published 2004).

B1: Endogenous CD40 of LPS-stimulated murine ANA1 macrophage cells (receptor, UniProt P27512 20-289, looked up)
chain: LGQCVTCSDKQYLHDGQCCDLCQPGSRLTSHCTALEKTQCHPCDSGEFSAQWNREIRCHQHRHCEPNQGLRVKKEGTAESDTVCTCKEGQHCTSKDCEACAQHTPCIPGFGVMEMATETTDTVCHPCPVGFFSNQSSLFEKCYPWTSCEDKNLEVLQKGTSQTNVICGLKSRMRALLVIPVVMGILITIFGVFLYIKKVVKKPKDNEILPPAARRQDPQEMEDYPGHNTAAPVQETLHGCQPVTQEDGKESRISVQERQVTDSIALRPLV
notes: whole, on cells
B2: Peptide C (GCEVFGLGWRSYKH) (peptide)
peptide: GCEVFGLGWRSYKH
notes: Synthetic Hsp70 substrate peptide; also called peptide substrate; substrate peptide

Experiments:
[1] = molecular target: T1, Biotinylated recombinant Hsp70 (human, UniProt P0DMV8 2-641); assay: fluorescence microscopy on LPS-stimulated ANA1 cells
T1 construct: mature; also called biotinylated Hsp70; biotin-labeled Hsp70; not shown: His tag
T1 sequence (P0DMV8 2-641): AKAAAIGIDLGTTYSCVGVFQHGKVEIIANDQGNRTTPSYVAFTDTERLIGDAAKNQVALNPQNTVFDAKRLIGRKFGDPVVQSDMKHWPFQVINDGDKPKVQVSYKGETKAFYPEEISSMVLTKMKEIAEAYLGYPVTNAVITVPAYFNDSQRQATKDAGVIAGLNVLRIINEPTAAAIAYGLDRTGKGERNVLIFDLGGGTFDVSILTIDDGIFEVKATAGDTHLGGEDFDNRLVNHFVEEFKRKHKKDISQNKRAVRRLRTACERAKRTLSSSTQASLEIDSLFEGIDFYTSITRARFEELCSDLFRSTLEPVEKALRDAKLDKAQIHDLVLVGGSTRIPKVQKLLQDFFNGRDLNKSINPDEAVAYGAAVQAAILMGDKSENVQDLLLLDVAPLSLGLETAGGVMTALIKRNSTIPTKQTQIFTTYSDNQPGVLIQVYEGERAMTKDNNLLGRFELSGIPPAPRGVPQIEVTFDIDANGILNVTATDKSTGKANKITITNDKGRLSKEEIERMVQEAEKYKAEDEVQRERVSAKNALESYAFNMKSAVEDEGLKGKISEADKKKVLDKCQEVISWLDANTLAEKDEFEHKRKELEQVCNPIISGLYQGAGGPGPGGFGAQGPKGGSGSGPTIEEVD
Experimental: ANA-1 cells were cultured in VLE-RPMI 1640 (Biochrom), supplemented with 10% FCS, 2 mM L-glutamine and antibiotics. For fluorescence microscopy, ANA1 cells were either stimulated with LPS (20 μg/ml, Sigma, Germany), or kept in an LPS-free medium (mock treatment) for 7 h. After stimulation, cells were harvested and incubated with 100 nM biotinylated Hsp70, biotinylated GST, or Hsp70/peptide C-biotin complex for 30 min at 0° C. in VLE-RPMI 1640. After incubation cells were processed for staining with streptavidin-TRITC (Sigma, Germany), fixed with paraformaldehyde and analyzed by fluorescence microscopy (Axiovert 35, Zeiss) as described (Sondermann et al., 2000). […] Twenty-four h post-transfection cells were incubated with 250 nM biotinylated Hsp70, biotinylated GST or Hsp70/peptide C-biotin complex for 30 min at 0° C. in DMEM, fixed, stained with streptavidin-TRITC (Sigma, Germany), and analyzed by fluorescence microscopy as described (Sondermann et al., 2000, idem). […] Stably transfected cell lines were analyzed by immunoblotting for CD40 expression using an anti-CD40 antibody (CSA180, Stressgen). […]

[2] = molecular target: T2, Recombinant human His6-tagged Hsp70 (human, UniProt P0DMV8 2-641); assay: titration of peptide C in the GST-CD40 pull-down of His6-Hsp70-ADP, quantified immunoblot
T2 construct: mature; also called His6-Hsp70; human Hsp70
T2 sequence (P0DMV8 2-641): as above
Experimental: For binding assays with recombinant Hsp70 and its domains, 3 μM His6-Hsp70 or its His6-tagged domains were incubated with 2 mM ATP, 2 mM ADP or 2 mM ADP and 28 μM peptide C in 50 μl binding buffer (10 mM MOPS/KOH, pH 7.2, 150 mM KCl and 3 mM MgCl2) for 30 min at 37° C. In competition experiments binding was probed with either a 10-fold excess of Hsp70, the two domains, or DnaK, or with a 5-fold excess of Hip or Bag 1 for 10 min at 0° C. To this end, Hsp70, N70, C70 and DnaK were preincubated with ADP, ATP and peptide C as described above. For comparison of CD40 binding of Hsp70 and its N-terminal domain, Hsp70 was preincubated in the presence or absence (mock treatment) of a 30-fold molar excess of peptide C. 3 μM of GST or GST-CD40 was added to the samples and incubated for 20 min at 16° C. For titration of peptide C, 5- to 50-fold excess of peptide C (15-150 μM) was added to the preincubation of Hsp70. Thereafter the samples were combined with 20 μl of 1% BSA-treated Glutathione Sepharose 4 Fast Flow and incubated in the presence of 2 mM DTT for another 20 min at 16° C. […] 10 μl of the eluates were subjected to SDS-PAGE and analyzed by immunoblotting using a Penta-His-antibody (Quiagen). Blot signals were quantified by Quantity One (Biorad).

| Binder | binding result [1] | ka (saturable effect of peptide C on binding of Hsp70-ADP to CD40) [2] [µM] |
| --- | --- | --- |
| B1 | binds | – |
| B2 | – | ~30 |
